The subject of one series is HT-29 MTX cells. In words: Cell toxicity, Sytox Green assay. In kind it is cell-based, human. The following applies: differentiated HT-29 MTX; 1 μg/mL, up to 10 h, serum starved media; Student test NS, p>0.05, n=3. On the procedure: (§1) FIGS. 8A-8D. (FIG. 8A) Cell toxicity of Cy5-MUB70 tested on HT-29-MTX and Hela epithelial cells. Cell survival was assessed using Sytoxgreen dye on cultures exposed to 1 μg/mL Cy5-MUB70 from 0 to 10 h, as indicated. NS indicates P>0.05 (Student's T-test). (FIG. 8B) Rabbit colonic and ileal mucus staining on fixed tissues (PFA 4%), using Cy5-MUB70 (1 μg/mL) (blue). Actin is stained in red (Phall.-RRX). Bar is 50 μm. (FIG. 8C) Human ex vivo colon sample was incubated for 2 h with 1 μg/mL Cy5-MUB70 in a serum-free media. Resulting fluorescent staining was assessed using a two-photons microscope (see Methods). Z-projection, performed using ImageJ software, allows 3D localization of Cy5-MUB70 fluorescence signal. […] Human tissue autofluorescence is detected in the same red channel as Cy5.
(§2) Hela cells were grown in DMEM medium supplemental with 10% FCS. […] Cell viability was determined by staining with Sytox Green (Invitrogen) as described by the manufacturer. […] Fluorescence was measured using a FACS flow cytometer (BD systems) recording at least 10,000 events. Data were analysed with CellQuest Pro software (BD Biosciences), and expressed as percentage survival.
(§3) As Cy5-MUB70 was envisaged to be used on living cells and organs, its cell-toxicity has been evaluated. This probe was incubated on differentiated HT-29 MTX and on Hela cells as cell viability was assessed using a Sytox Green assay (see Methods).

For the next series, the system named is Hela cells. In words: Cell toxicity, Sytox Green assay. As to conditions: 1 μg/mL, up to 10 h, serum starved media, Student test NS, p>0.05, n=3. In kind it is cell-based, human. On the procedure: as §1, §2, §3
Series [1] concerns mucus layer of differentiated HT-29 MTX human epithelial colonic cells. In words: Staining of living HT-29 MTX cells, epifluorescent microscope. As to conditions: living differentiated HT-29 MTX; 1 μg/mL, 2 h, serum-free media. In kind it is cell-based. As for the experimental part:
FIGS. 3A-3B. Cy5-MUB70 colonic mucus binding property. (FIG. 3A) HT-29 MTX living cells were incubated for 2 h with Cy5-MUB70 in a serum-free media. The resulting fluorescent signal (red) was visualized at the surface of the cell layer using an epifluorescent microscope. Z-projection, performed using ImageJ software, allowed 3D localization of Cy5-MUB70 fluorescence signal in the mucus layer. Bar is 10 μm (FIG. 3B) MPE and SHG imaging of the binding of Cy5-MUB70 to the human colonic mucus. […] Human tissue autofluorescence is detected in the same red channel as Cy5.
For dot blot assay, goat α-MUC2 pAbs (sc-13312, Santa Cruz), mouse α-MUC5ac (Abcam), mouse α-MUC5b mAbs (Abcam), mouse α-MUC6 mAbs (sc-33668, Santa Cruz), mouse α-lactoferrin mAbs (sc-52048, Santa Cruz) and rabbit α-FCGBP pAbs (Sigma-Aldrich) antibodies were used at a 1:100 dilution. Corresponding HRP-Conjugated antibodies were used at a 1:1000 dilution. For staining living HT-29 MTX cells and on human colon ex vivo model, Cy5-MUB70 was incubated (1 μg/mL) in a serum starved culture medium (DMEM and RPMI respectively) for two hours at 37° C. prior observation.
Fluorescent labeled tissues and cells were observed using a widefield epifluorescent microscope (Zeiss Definite Focus), laser-scanning confocal microscope (Leica TCS SP5) or a two-photons confocal microscope (Zeiss LSM710), as indicated. […]

The test system of another series is rabbit ileal mucus. Kind of series: Mucus staining on fixed tissues, rabbit ileum. As to conditions: fixed tissue, 1 μg/mL. As for the experimental part: as §1, with “signal. Bar is 100 μm. Colon scheme: firmly (f) and loosely (I) attached colonic mucus layers are represented at the surface of the epithelium (e). (FIG. 8D) Kinetics of colonic mucus with Cy5-MUB70.” for “signal.”
FIGS. 11A-11C. Mucus staining using Cy5-MUB70 on fixed tissues. (FIG. 11A) Guinea pig colon, (FIG. 11B) rabbit ileum and (FIG. 11C) mouse colon were fixed in PFA 4%. Immunofluorescent staining was performed using Cy5-MUB70 (1 μg/mL) (blue). Actin is stained in red (Phall.-RRX), Muc2 is stained in green (α-Muc2). Observations were performed using a confocal microscope. Bar is 50 μm. […]

The subject of series [2] is neutrophiles (white blood cells) in rabbit ileum sub-mucosa. Kind of series: Staining of neutrophiles in rabbit ileum sub-mucosa. As to conditions: PFA 4% fixed rabbit ileum; colocalized with α-elastase (PMN) signal. On the procedure: FIG. 13. Staining of individual neutrophiles (white blood cells) in rabbit ileum sub-mucosa. Cy5-MUB70 was incubated on PFA 4% fixed tissues. Signal was colocalized with an α-elastase (PMN) signal. (Primary antibody is α-elastase (PMN) 1:400 and secondary antibody is anti-mouse GFP 1:400, MUBCys5 1:400, Phalloidin-RRX 1:400). […] In particular, granules staining is achieved.

B1: Cy5-MUB70: Cy5-labelled MUB70 polypeptide, labelled via Cy5 maleimide on N-terminal cysteine (conjugate)
peptide: CVHVQYIDGETDQMLRQDDLDGYTDETIPYSTAEGIKKFEGDGYELFKDNFPAGEKFDNDDTNDQFYTVIF
With B1, the cell viability entry with HT-29 MTX cells and in the series on Hela cells was “do not affect significantly cell viability” each time. Besides, the “mucus layer binding on living cells” value in series [1] is “binding the mucus layer at the surface of the cells”. In addition, in the series with rabbit ileal mucus, the ileal mucus staining entry is on record as “negative results”. Also, the “neutrophile staining in tissue” value in series [2] is listed as “binding specifically a neutrophile component”.

The values are drawn from patent US10138280B2, “Polypeptides targeting glycosylated MUC2 proteins, methods of synthesis, their nucleic acids and uses thereof” (INSTITUT PASTEUR, priority 2011, dated 2018).
